Assay results from patent US20180112008A1 (Memorial Sloan Kettering, published 2018).
Substitutions are numbered along the chain they refer to. Ends that are not written are not given here. * marks the point of attachment. GlcNAc2 = N-linked chitobiose, CC(=O)N[C@@H]1[C@@H](O)[C@H](O[C@@H]2O[C@H](CO)[C@@H](O)[C@H](O)[C@H]2NC(C)=O)[C@@H](CO)O[C@H]1*

T1: MUC16^c114 (human, capable of N-glycosylation at Asn1, Asn24 and Asn30 ; chain 1 pos 1, 24, 30: Asn capable of N-glycosylation on the transfected cells, written N)
T1 construct: The forward primer adds Met-Val before Asn1; also called MUC16^c114-GFP; SKOV3 MUC16^c114; not shown: hrGFP of the phrGFP II-C vector fused at the cytoplasmic carboxy-terminus, with its short cloning linker
T1 chain: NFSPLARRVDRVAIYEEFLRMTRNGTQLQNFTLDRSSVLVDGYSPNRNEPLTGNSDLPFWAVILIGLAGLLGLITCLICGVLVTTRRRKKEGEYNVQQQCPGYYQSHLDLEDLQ

T2: MUC16 nonglycosylated peptide 2 (human)
T2 construct: Peptide used to elicit the 4H11 antibody; also called nonglycosylated MUC16 peptide 2
T2 peptide: CTLDRSSVLVDGYSPNRNE

T3: MUC16 unrelated peptide 18mer
T3 construct: Negative control peptide without glycan
T3 peptide: GAVPRSATINVSRIATGP

T4: MUC16 unrelated peptide 18mer+GlcNAc2 (also: GlcNAc2 (chitobiose), site not given here)
T4 construct: Negative control glycopeptide; also called unrelated chitobiose-linked peptide
T4 peptide: GAVPRSATINVSRIATGP

T5: MUC16^c114 on SKOV3 cells with MGAT5 knock-down (human, N-glycans without MGAT5-dependent tetra-antennary branching ; chain 1 pos 1, 24 and 30: N-glycosylated Asn, written N; the glycans lack MGAT5-dependent tetra-antennary branching (shRNA knock-down))
T5 construct: Same polypeptide as MUC16^c114, other glycoform (shRNA against MGAT5); also called SKOV3-shMGAT5-c114; MUC16^c114-shMGAT5; not shown: hrGFP of the phrGFP II-C vector, fused at the cytoplasmic carboxy-terminus
T5 chain: T1 chain

T6: non-glycosylated 15-mer MUC16 peptide (human)
T6 construct: Same peptide as the GlcNAc2-15-mer without the glycan; also called unglycosylated 15-mer
T6 peptide: CGTQLQNFTLDRSSV

T7: MUC16 18mer (not fully specified)
T7 construct: also called non-glycosylated 18-mer MUC16 peptide
T7 peptide: CTRNGTQLQNFTLDRSSV

T8: (GlcNAc2)2-18-mer glycopeptide, unconjugated (human)
T8 construct: Used in ELISA without KLH; also called 18-mer(chitobiose)2[C-T22-V38]; 18mer-chitobiose peptide
T8 peptide: Ac-CTRN(GlcNAc2)GTQLQN(GlcNAc2)FTLDRSSV-NH2

T9: GlcNAc2-15-mer glycopeptide, unconjugated (human)
T9 construct: Cys plus G25-V38 of MUC16^c114; Used in ELISA without KLH; also called 15-mer(chitobiose)[C-G25-V38]; 15mer-chitobiose peptide
T9 peptide: Ac-CGTQLQN(GlcNAc2)FTLDRSSV-NH2

T10: MUC16 18mer + GlcNAc2-FUCOSE1 (also: N-linked GlcNAc2Fuc (fucosylated chitobiose), Asn site not given here)
T10 construct: also called 18-mer with fucosylated chitobiose (GlcNAc2Fuc)
T10 peptide: CTRNGTQLQNFTLDRSSV

T11: MUC16 18mer + GlcNAc2-Trimannose (also: N-linked Man3GlcNAc2, Asn site not given here)
T11 construct: also called 18-mer with Man3GlcNAc2
T11 peptide: CTRNGTQLQNFTLDRSSV

T12: biotinylated chitobiose-conjugated 18-mer glycopeptide (human, also: biotinylated, site not given here)
T12 construct: Cys plus T22-V38 of MUC16^c114; The range is derived from T22-V38 and the statement that c114 is 1777-1890; also called (GlcNAc2)2-18-mer, biotinylated; 18-mer(chitobiose)2[C-T22-V38]
T12 peptide: Ac-CTRN(GlcNAc2)GTQLQN(GlcNAc2)FTLDRSSV-NH2

B1: 18C6.D12 (antibody, V domains shown)
VH: QVTLKESGPGILQPSQTLSLTCSFSGFSLSTVGMGVGWSRQPSGKGLEWLAHIWWDDEDKYYNPALKSRLTISKDTSKNQVFLKIANVDTADTATYYCTRIGTAQATDALDYWGQGTSVTVSS
VL: DIVMTQAAPSVPVTPGESVSISCRSSKSLLHSNGNTYLYWFLQRPGQSPQRLIYYMSNLASGVPDRFSGRGSGTDFTLRISRVEAEDVGVYYCMQSLEYPLTFGGGTKLEIK
notes: Mouse monoclonal from a hybridoma; also called MUC16 Glycosylation Antibody 18C6
B2: 7B12.B3 (antibody, V domains shown)
VH: B1 VH with T93S
VL: B1 VL with P12S, L30R, H31K, E110K
notes: Mouse monoclonal from a hybridoma; also called MUC16 Glycosylation Antibody 7B12
B3: 19C11.H6 (antibody, V domains shown)
VH: QVNLKESGPGKLQPSQTLSLTCSFSGFSLSTLGMGVGWIRQSSGKGLEWLAHIWWDDDKYYNPALKSRLTISRATSKNQVFLKIVNVGTADTATYYCARIGTAQATDALDYWGQGTSVTVSS
VL: B1 VL with V11I, R79K, E86G, S96G, Y99H
notes: Mouse monoclonal from a hybridoma; Used as 89Zr-DFO-labelled antibody in the internalization assay; also called MUC16 Glycosylation Antibody 19C11

Molecular target: T1, MUC16^c114
Assay: FACS, SKOV3-c114

Binder	geometric mean phycoerythrin (PE) fluorescence
B1	2050
B2	492
B3	617

Molecular target: T2, MUC16 nonglycosylated peptide 2
Assay: sandwich ELISA

Binder	binding result
B1	no binding
B2	no binding
B3	no binding

Molecular target: T3, MUC16 unrelated peptide 18mer
Assay: sandwich ELISA

Binder	binding result
B1	no binding
B2	no binding
B3	no binding

Molecular target: T4, MUC16 unrelated peptide 18mer+GlcNAc2
Assay: sandwich ELISA

Binder	binding result
B1	no binding
B2	no binding
B3	no binding

Molecular target: T5, MUC16^c114 on SKOV3 cells with MGAT5 …
Assay: FACS, SKOV3-shMGAT5-c114

Binder	geometric mean phycoerythrin (PE) fluorescence
B1	855
B2	289
B3	525

Molecular target: T6, non-glycosylated 15-mer MUC16 peptide
Assay: sandwich ELISA on 'MUC16 15mer'; Blank 0.021

Binder	ELISA signal
B1	1.06
B2	1.21
B3	1.17

Molecular target: T7, MUC16 18mer
Assay: sandwich ELISA on 'MUC16 18mer'; Blank 0.032

Binder	ELISA signal
B1	1.01
B2	1.09
B3	0.98

Molecular target: T7, MUC16 18mer
Assay: ELISA during fusion screen, dilution 400, column 18

Binder	ELISA signal
B1	0.39
B2	0.53
B3	0.38

Molecular target: T8, (GlcNAc2)2-18-mer glycopeptide, …
Assay: ELISA during fusion screen, dilution 400, column 18S

Binder	ELISA signal
B1	0.64
B2	0.92
B3	0.47

Molecular target: T9, GlcNAc2-15-mer glycopeptide, …
Assay: sandwich ELISA on 'MUC16 15mer + GlcNAc2'; Blank 0.019

Binder	ELISA signal
B1	1.44
B2	1.32
B3	1.51

Molecular target: T8, (GlcNAc2)2-18-mer glycopeptide, …
Assay: sandwich ELISA on 'MUC16 18mer + GlcNAc2'; Blank 0.029

Binder	ELISA signal
B1	1.06
B2	1.06
B3	1.1

Molecular target: T10, MUC16 18mer + GlcNAc2-FUCOSE1
Assay: sandwich ELISA on 'MUC16 18mer + GlcNAc2-FUCOSE1'; Blank 0.044

Binder	ELISA signal
B1	1.03
B2	1.1
B3	1.01

Molecular target: T3, MUC16 unrelated peptide 18mer
Assay: sandwich ELISA on 'MUC16 unrelated peptide 18mer'; Blank 0.013

Binder	ELISA signal
B1	0.02
B2	0.04
B3	0.03

Molecular target: T4, MUC16 unrelated peptide 18mer+GlcNAc2
Assay: sandwich ELISA on 'MUC16 unrelated 18mer + GlcNAc2'; Blank 0.014

Binder	ELISA signal
B1	0.02
B2	0.03
B3	0.03

Molecular target: T11, MUC16 18mer + GlcNAc2-Trimannose
Assay: sandwich ELISA on 'MUC16 18mer + GlcNAc2-Trimannose'; Blank 0.035

Binder	ELISA signal
B1	0.89
B2	1.05
B3	0.99

Molecular target: T6, non-glycosylated 15-mer MUC16 peptide
Assay: ELISA 12/24/13 (sups from time of freezing), dilution 400, column 15

Binder	ELISA signal
B1	0.44
B2	0.44
B3	0.3

Molecular target: T7, MUC16 18mer
Assay: ELISA 12/24/13 (sups from time of freezing), dilution 400, column 18

Binder	ELISA signal
B1	0.45
B2	0.33
B3	0.2

Molecular target: T9, GlcNAc2-15-mer glycopeptide, …
Assay: ELISA 12/24/13 (sups from time of freezing), dilution 400, column 15S

Binder	ELISA signal
B1	0.14
B2	0.25
B3	0.1

Molecular target: T8, (GlcNAc2)2-18-mer glycopeptide, …
Assay: ELISA 12/24/13 (sups from time of freezing), dilution 400, column 18S

Binder	ELISA signal
B1	0.55
B2	0.51
B3	0.36

Molecular target: T12, biotinylated chitobiose-conjugated …
Assay: BLI (Octet QK), biotinylated glycopeptide on streptavidin sensor, antibody 10 ug/mL, 1:1 model
Protocol: Binding affinity was determined using ForeBio Octet QK. 5 μg/mL of biotinylated chitobiose-conjugated 18-mer glycopeptide was loaded onto a streptavidin biosensor. After washing off excess antigen, mouse antibodies were tested at 10 μg/mL for association and dissociation steps, respectively. Binding parameters were calculated using 1:1 binding site model, partial fit.

Binder	Kd [nM]	koff [s⁻¹]
B1	11.1	0.000678
B2	13.8	0.00104
B3	63.7	0.00242
